# Measured values published in patent publication US20220387487A1, “COMPOSITIONS AND METHODS FOR TREATMENT OF CANCER” (Aleta Biotherapeutics Inc., priority 2019, published 2022).
# System: FMC63
# Assay: CD19 variant binding to anti-CD19 antibody FMC63 (score)
# Conditions: Table 1A, CD19 single mutants (positions of SEQ ID NO:2)
# Chain of FMC63 (as listed by the source): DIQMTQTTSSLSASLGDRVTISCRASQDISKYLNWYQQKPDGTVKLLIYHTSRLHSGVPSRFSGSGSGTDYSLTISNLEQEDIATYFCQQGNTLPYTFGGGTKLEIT
# Chain of FMC63 (as listed by the source): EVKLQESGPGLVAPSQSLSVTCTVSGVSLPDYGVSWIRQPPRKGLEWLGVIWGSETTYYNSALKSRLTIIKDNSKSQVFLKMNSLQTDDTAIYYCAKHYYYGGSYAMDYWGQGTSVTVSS
row,Molecule,FMC63 Binding Score
1,W264S: CD19 variant (protein) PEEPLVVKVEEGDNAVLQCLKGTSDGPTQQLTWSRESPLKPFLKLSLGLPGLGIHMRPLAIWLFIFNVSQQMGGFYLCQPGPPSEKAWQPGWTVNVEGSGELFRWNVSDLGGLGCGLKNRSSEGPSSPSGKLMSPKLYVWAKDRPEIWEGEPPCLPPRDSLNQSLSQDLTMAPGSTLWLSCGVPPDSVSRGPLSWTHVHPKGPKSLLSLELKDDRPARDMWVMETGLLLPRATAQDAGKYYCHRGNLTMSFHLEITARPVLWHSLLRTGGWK,7.6 ± .5
2,W262P: CD19 variant (protein) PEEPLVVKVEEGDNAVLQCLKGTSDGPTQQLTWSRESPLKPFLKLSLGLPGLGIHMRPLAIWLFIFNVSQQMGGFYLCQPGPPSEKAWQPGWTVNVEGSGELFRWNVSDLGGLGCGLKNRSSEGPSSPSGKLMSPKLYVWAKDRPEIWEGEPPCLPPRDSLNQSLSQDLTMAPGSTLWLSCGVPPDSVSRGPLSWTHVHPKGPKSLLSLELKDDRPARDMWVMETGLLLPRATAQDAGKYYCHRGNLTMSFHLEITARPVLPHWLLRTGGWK,7.4 ± .7
3,V260K: CD19 variant (protein) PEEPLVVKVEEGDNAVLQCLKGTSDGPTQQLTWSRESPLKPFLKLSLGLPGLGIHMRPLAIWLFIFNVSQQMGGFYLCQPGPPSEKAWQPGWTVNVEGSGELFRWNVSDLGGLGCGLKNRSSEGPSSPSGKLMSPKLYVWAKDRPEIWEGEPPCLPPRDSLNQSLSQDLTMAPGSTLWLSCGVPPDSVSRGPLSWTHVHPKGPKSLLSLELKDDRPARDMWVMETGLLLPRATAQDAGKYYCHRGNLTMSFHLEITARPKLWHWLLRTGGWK,7.5 ± .7
4,W264K: CD19 variant (protein) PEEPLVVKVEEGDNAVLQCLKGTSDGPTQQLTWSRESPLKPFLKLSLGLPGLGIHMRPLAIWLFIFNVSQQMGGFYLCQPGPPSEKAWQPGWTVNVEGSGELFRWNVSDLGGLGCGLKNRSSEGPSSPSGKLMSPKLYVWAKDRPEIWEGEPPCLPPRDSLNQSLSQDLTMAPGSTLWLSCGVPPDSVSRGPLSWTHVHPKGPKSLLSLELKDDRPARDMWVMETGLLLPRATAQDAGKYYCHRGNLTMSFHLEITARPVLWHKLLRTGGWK,8. ± 1.
5,W262S: CD19 variant (protein) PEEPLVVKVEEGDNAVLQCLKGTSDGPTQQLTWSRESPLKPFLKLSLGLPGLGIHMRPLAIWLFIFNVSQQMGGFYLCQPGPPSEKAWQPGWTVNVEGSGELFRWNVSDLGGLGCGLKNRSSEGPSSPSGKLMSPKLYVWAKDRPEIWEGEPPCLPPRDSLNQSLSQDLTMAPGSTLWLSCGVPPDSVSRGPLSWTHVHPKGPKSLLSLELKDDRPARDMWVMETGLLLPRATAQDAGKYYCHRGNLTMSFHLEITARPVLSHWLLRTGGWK,7. ± .3
6,L228V: CD19 variant (protein) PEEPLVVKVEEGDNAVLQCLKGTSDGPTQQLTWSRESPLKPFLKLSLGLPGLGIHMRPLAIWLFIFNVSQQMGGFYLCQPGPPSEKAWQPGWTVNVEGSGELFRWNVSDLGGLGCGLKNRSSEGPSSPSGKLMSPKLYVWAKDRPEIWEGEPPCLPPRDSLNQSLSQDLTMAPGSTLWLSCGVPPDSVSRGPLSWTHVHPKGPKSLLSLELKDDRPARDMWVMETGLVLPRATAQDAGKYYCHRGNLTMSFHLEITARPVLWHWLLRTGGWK,7.4 ± .4
7,W264G: CD19 variant (protein) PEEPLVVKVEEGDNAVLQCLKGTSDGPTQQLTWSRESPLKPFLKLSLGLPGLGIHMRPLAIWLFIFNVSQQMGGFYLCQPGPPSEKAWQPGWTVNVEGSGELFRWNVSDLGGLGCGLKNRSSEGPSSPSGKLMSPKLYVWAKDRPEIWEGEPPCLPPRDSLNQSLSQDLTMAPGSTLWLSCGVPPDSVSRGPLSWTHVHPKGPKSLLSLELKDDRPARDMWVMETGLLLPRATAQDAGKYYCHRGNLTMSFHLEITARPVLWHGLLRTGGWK,7.2 ± .3
8,W262R: CD19 variant (protein) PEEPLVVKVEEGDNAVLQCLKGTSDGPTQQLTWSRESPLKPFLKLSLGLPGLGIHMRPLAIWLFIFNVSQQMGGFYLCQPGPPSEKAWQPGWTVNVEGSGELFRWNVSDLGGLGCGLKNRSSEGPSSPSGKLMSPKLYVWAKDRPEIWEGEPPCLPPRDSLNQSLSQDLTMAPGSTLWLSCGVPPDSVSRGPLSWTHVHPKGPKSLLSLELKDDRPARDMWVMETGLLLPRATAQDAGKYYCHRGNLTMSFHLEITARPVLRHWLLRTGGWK,7.4 ± .3
9,W264P: CD19 variant (protein) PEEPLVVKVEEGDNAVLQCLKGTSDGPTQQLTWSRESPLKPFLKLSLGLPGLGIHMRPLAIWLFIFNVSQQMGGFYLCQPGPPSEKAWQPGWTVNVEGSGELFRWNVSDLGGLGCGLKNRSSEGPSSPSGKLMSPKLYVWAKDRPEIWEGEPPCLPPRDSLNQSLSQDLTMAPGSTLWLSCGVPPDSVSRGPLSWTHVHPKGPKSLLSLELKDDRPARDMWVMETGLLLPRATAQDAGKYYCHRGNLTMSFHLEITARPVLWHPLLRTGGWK,8.6 ± 1.5
10,W264Q: CD19 variant (protein) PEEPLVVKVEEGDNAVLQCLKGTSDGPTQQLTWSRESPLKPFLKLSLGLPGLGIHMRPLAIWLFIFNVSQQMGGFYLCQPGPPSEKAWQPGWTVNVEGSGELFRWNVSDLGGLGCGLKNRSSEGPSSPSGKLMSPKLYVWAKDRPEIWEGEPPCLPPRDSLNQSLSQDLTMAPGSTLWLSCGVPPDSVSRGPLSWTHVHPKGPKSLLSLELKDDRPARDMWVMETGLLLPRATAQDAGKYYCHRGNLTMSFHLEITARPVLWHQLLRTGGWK,7.4 ± .8
11,W262E: CD19 variant (protein) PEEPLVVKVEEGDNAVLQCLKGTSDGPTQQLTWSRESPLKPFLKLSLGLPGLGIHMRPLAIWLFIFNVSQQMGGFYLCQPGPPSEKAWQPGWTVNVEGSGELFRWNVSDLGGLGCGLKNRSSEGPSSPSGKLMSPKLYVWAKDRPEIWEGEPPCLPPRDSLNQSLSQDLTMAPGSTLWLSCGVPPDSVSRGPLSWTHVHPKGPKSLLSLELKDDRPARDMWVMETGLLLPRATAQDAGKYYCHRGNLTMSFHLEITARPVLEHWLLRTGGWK,6.9 ± .3
12,G226T: CD19 variant (protein) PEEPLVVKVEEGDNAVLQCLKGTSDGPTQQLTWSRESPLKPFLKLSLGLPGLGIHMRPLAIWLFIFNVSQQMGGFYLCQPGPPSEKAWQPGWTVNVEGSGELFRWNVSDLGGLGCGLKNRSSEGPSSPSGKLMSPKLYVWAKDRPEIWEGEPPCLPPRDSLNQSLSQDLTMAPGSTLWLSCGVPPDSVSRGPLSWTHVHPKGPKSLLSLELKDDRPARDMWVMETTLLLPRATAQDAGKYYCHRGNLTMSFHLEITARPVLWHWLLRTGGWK,7.3 ± .6
13,W264R: CD19 variant (protein) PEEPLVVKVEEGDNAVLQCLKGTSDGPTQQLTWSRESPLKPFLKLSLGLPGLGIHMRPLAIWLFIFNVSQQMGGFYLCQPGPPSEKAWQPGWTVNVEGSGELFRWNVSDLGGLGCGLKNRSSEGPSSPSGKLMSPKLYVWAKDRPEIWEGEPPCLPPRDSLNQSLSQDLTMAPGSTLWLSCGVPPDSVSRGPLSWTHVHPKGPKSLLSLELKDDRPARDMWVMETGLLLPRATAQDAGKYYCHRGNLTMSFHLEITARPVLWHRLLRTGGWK,6.9 ± .3
